In patent US12404328 (CULLINAN MANAGEMENT, dated 2025):

Assays:
[1] = biological target: T1, monomeric CD19 extracellular domain (UniProt P15391 20-291, limits assumed); assay: SPR as printed, ForteBio instrument (per Estep et al. 2013); monomeric CD19 extracellular domain; monomeric CD19 protein
T1 construct: extracellular domain; also called monomeric CD19 protein
T1 sequence (looked up): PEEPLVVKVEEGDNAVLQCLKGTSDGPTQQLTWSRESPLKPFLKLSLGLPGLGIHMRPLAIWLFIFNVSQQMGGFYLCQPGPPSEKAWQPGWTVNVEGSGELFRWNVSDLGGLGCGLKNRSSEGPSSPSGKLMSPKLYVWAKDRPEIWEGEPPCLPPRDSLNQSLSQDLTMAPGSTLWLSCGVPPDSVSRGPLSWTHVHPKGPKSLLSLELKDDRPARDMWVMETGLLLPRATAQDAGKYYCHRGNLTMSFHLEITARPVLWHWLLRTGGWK
Protocol: (§1) As noted above, the constructs produced contained an anti-CD19 scFv having the amino acid sequence set forth in SEQ ID NO: 9 or 18. The binding affinity of the two CD19 binding domains to CD19 were measured by SPR using a monomeric CD19 extracellular domain and a dimeric CD19 extracellular domain fused with human IgG1 Fc. Binding kinetic parameters were measured using an instrument (available under the tradename ForteBio™ from Pall Corporation®) generally as previously described (see, Estep et al. (2013) MAbs, 5 (2): 270-78).

[2] = biological target: T2, dimeric CD19 extracellular domain fused with human IgG1 Fc (human, UniProt P15391 20-291, limits assumed); assay: SPR as printed, ForteBio instrument (per Estep et al. 2013); dimeric CD19 extracellular domain-human IgG1 Fc; dimeric CD19 protein (IgG1 Fc fusion)
T2 construct: extracellular domain; also called dimeric CD19 protein; not shown: human IgG1 Fc
T2 sequence (looked up): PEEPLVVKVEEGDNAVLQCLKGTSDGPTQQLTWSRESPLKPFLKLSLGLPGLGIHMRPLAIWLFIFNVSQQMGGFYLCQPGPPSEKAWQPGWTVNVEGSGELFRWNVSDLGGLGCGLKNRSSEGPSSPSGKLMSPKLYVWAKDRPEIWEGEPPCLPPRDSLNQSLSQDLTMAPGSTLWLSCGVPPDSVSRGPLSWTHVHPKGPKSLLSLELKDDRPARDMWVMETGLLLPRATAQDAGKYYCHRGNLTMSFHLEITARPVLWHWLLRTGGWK
Protocol: as §1

Row | Binder | Kd [1] [nM] | Kd [2] [nM]
1 | CD19 binding domain having the sequence of SEQ ID NO: 9 (scFv, also called Roche mAb scFv) scFv: QVQLVQSGAEVKKPGASVKVSCKASGYTFTDYIMHWVRQAPGQGLEWMGYINPYNDGSKYTEKFQGRVTMTSDTSISTAYMELSRLRSDDTAVYYCARGTYYYGPQLFDYWGQGTTVTVSSGGGGSGGGGSGGGGSDIVMTQTPLSLSVTPGQPASISCKSSQSLETSTGTTYLNWYLQKPGQSPQLLIYRVSKRFSGVPDRFSGSGSGTDFTLKISRVEAEDVGVYYCLQLLEDPYTFGQGTKLEIK | 7 | 5
2 | CD19 binding domain having the sequence of SEQ ID NO: 18 (scFv, also called SG mAb scFv) scFv: QVQLQESGPGLVKPSQTLSLTCTVSGGSISTSGMGVGWIRQHPGKGLEWIGHIWWDDDKRYNPALKSRVTISVDTSKNQFSLKLSSVTAADTAVYYCARMELWSYYFDYWGQGTLVTVSSGGGGSGGGGSGGGGSEIVLTQSPATLSLSPGERATLSCSASSSVSYMHWYQQKPGQAPRLLIYDTSKLASGIPARFSGSGSGTDFTLTISSLEPEDFAVYYCFQGSVYPFTFGQGTKLEIKR | 11 | 15
